Reference: patent publication US20240101645A1 (HENRY M JACKSON FOUNDATION FOR THE ADVANCEMENT OF MILITARY …, published 2024)

B1: COV_1037 (antibody, V domains shown)
VH: QVQLVESGGGVVQPGRSLRLSCAASGFTFSSYGMHWVRQAPGKGLEWVAVIWYDGSNKYYADSVKGRFTISRDNSKNTLYLQMNSLRAEDTAVYYCARGGYQLLWHYYYYYGMDVWGQGTTVTVSS
VL: not shown
B2: COV_1076 (antibody, V domains shown)
VH: QVQLVESGGGLVKPGGSLRLSCAASGFTFSEYSMSWIRQAPGKGLEWVSFIGGSGDYTNYADSVKGRFTISRDNAKNLLYLQMNTLRVEDTAVYYCARRGSANCGDDWWGQGTLVTVSS
VL: DIVMTQSPDSLAVSLGERATINCKSSHGVLYRSNNKDHLAWYQQKPGHPPKLLIYWASIRESGVPDRFSGSGSGTDFTLTISGLQAEDVAVYYCQQYYGNPTFGGGTKVEIKR
B3: COV_1082 (antibody, V domains shown)
VH: EVQLVESGGGLVQPGGSLRLSCAASGFIFNIHGMNWFRQAPGKGLEWISHIGTSGESRDIHYADSVRGRFTISRDNGKHSLYLQMNSLTAEDTAVYFCARGLTNSDLWGQGTLVTVSS
VL: EIVMTQTPLSSPVTLGQPASISCRSSESLVHSNGDTYLSWLHQRPGQPPRLLLYKISNRFSGVPDRFSGSGAGTDFTLTISRVEAEDVGLYYCMQATSFPRTFGQGTKVEIKR
B4: COV_1198 (antibody, V domains shown)
VH: EVQLVEAGGDLVQPGGSLRLSCSASGFTFTSYSIHWVRQAPGKGLEYVSTISHGGDITDFADSVKGRFTISRDNSENTVYLQMSSLRPEDTAVYYCARSNFWLDYWGQGTLVTVSS
VL: KIVMTQSPATLSVSPGDSATLSCRASQSVSSNLAWYQQKPGQAPRLLISGAFTRATGIPARFSGSGSGTEFTLTISSLQSEDFAVYYCLQYNNWPLYTFGQGTKLEIKR
B5: COV_3000 (antibody, V domains shown)
VH: EVQLVESGGGLVQPGRSLRLSCTASGFNFGDNSMSWVRQAPGKGLEWVGFISNRASGGTTEYAASVKGRFTISRDDSKSIAYLQMNSLKTEDTAMYFCTKDSYGHFPNYGFDIWGQGTMVTVSS
VL: AVVMTQTPLSLSVTPGQPASISCKSSQSLIHTDGKTYHYWFLQRPGQPPQLLIYDVSNRVSGVPDRFSGSGSGTDFTLKISRVEADDVGVYYCMHSIQLPRAFGQGTKVEIT
B6: COV_3013 (antibody, V domains shown)
VH: EVQLVESGGGLVQPGRSLRLSCTTSGFNFGDNSMSWVRQAPGKGLEWVGFISNKAHGATTEYAASVRGRFTISRDDSKSIVYLQMNSLTTEDTAMYYCIRDSYGHFPSYGFDIWGQGTMVTVSS
VL: DVVMTQTPLSLSVTPGQPASISCKSSQSLIHSDAKTYFYWFLQKPGQPPQLLIYDVSNRFSGVPDRFSGSGSGTDFTLKISRVEAEDVGVYYCMHSIQLPRTFGQGTKVEIT
B7: COV_3037 (antibody, V domains shown)
VH: EVQLVESGGGLVQPGRSLRLSCTASGFNFGDNSMSWVRQAPGKGLEWVGFISNRAYGGTTEYAASVKGRFSISRDDSKSIAYLQMNSLRTEDTAMYFCTKDSYGHFPNYGFDIWGQGTMVIVSS
VL: VVVMTQTPLSLSVTPGQPASISCKSSQSLIHTDGKTYHYWFLQRPGQPPQLLIYDVSNRVSGVPDRFSGSGSGTDFTLKISRVEADDVGVYYCMHSIQLPRAFGQGTKVEIT
B8: COV_3019 (antibody, V domains shown)
VH: EVQLVESGGGLVQPGQSLRLSCTTSGFNFGDNSMSWVRQAPGKGLEWVGFISPKSHGETTEYAASVKGRFSISRDDSTSIAYLQMSSLKTEDTAIYYCIRDSYGHFPEYGFDIWGQGTMVTVSS
VL: DVVLTQTPLFLSVTPGQPASISCKSSRSLIHSDGKTYFYWFLQKAGQPPQLLIYEASNRFSGVPDRFSGSGSGTDFTLHISRVEAEDVGIYYCMHSIQLPRTFGQGTKVELT
B9: COV_3028 (antibody, V domains shown)
VH: EVQLVESGGGLVQPGQSLRLSCTTSGFNFGDNSMSWVRQAPGKGLEWVGFISPKSHGGTTEYAASVKGRFSISRDDSTSNAYLQMTSLKTEDTAIYYCIRDSYGHFPEYGFDIWGQGTMVTVSS
VL: DVVLTQTPLFLSVTPGQPASISCKSSGSLIHTDGKTYFYWFLQKAGQPPQLLIYEASNRFSGVPDRFSGSGSGTDFTLHISRVEAEDVGIYYCMHSIQLPRTFGQGTKVELT
B10: COV_3031 (antibody, V domains shown)
VH: EVQLVESGGGLVQPGRSLRLSCTTSGFNFGDNSMSWVRQAPGKGLEWVGFISNKAYGGTTEYAASVKGRFTISRDDSTSIAYLQMNSLKTEDTAIYYCIRDSYGHFPDYGFDIWGQGTMVTVSS
VL: DVVLTQTPLFLSVTPGQPASISCKSSRSLIHSDGKTYFYWFLQKPGQPPQLLIYEASNRFSGVPDRFSGSGSGTDFTLKISRVEAEDVGVYYCMHSIQLPRTFGQGTKVEIT
B11: COV_1046 (antibody, V domains shown)
VH: QVQLVQSGAEVQKPGASVKVSCKASGDTFSYSYVHWVRQAPGHGLEWMGIINPSNGDTNYTQNFQGRVTMTSDTSTSTVLLELSSLTSDDTAVYYCARAPDQYFDYWGQGSPVTVSA
VL: DIVMTQTPLSSPVTLGQPASISCRSSESLVHSDGNTYLSWLQQRPGQPPRLLIYRVSNRFSGVPDRFSGSGAGTDFTLKISRVEAEDVGVYYCMQAKDFPRTFGQGTKVEIK
B12: COV_2108 (antibody, V domains shown)
VH: EVQLVESGGGVVQPGRSLRLSCAASGFTFSNYAFHWVRQAPGKGLEWVAVISYDGSIKYSADSVKGRFTISRDNSKNTLYLQMNSLRAEDTAVYYCARDSGDYVDYFDYWGQGTLVTVSS
VL: DIQMTQSPSSLSASVGDRVTITCRASQSISSYLNWYQQKPGKAPKLLIHTTSSLQSGVPSRFSGSGSGTGFTLTISSLQPEDFATYYCQQSYSSPPLTFGGGTKVEIK
B13: COV_2172 (SEQ ID NO:442/447) (antibody, V domains shown)
VH: EVQLVESGGGVVQPGRSLRLSCAPSGFTFSTYAMHWVRQAPGKGLEWVAVISYDGSIKYYADSVKGRFTISRDNTMNTVFLQMNSLRAEDTAVYFCAKGGERWELFTSFDYWGQGTQVTVSS
VL: QSALTQPRSVSGSPGQSVTISCTGTSSDVGGYNYVSWYQQHPGKAPKLMIYDVSKRPSGVPDRFSGSKSGNTASLTISGLQAEDEADYYCCSYAGSYTFVFGGGTKLTVL
B14: COV_3005 (antibody, V domains shown)
VH: EVQLLGFGGGFIRPGGSLRLSCAASGFSFSSYSMSWVRQGPGNGLEWVAGISDRGNSKTYADSVKGRFTVSRDNSKDMLYLELTNLRVEDSATYFCARDWSQSSSSSSPDYWGPGILVTVSS
VL: DIQMTQSPSAMSAFVGDRVTITCRASLGVNNYLAWYQQRPGKVPRRLIYAASSLQSGVPSRFRGSGSGTQFTLTITGLQPEDSGTYYCLQHGRYPPVFGPGTRVELI
B15: COV_2066 (antibody, V domains shown)
VH: QVQLQESGPGLVKPSETLSLTCSVSGFAITNGFDWGWIRQPPRLGLEWIGTVFHTGVTYSNPSLKSRLSTSVDTSKNQFSMTLNSVTAADTGIYYCVRVQSGLEARAMSFFDYWGQGMLVSVSS
VL: DIVMTQSPDSLAVSLGERATINCKSSQNVLYSSNNKNSLAWYQQKPGQPPKVLIYWASTRVSGVPDRFIGSGSGTDFTLTISSLQAEDVAVYYCQQYSSSITFGPGTKVEVKR
B16: COV_1071 (antibody, V domains shown)
VH: QVHLVQSGAEVQKPGASVKISCKASGDTFSESYVHWVRQAPGSGLEWMGIINTRDGDTNYTHQFQDRVMMTTDTSTSTVFLELYSLTSEDTAVYYCARAPDQYFDYWGQGSPVTVSA
VL: DIVMTQTPLSSPVTLGQPASISCRSSESLVHSNGNTYLSWLQQRPGQPPKLLIYRVSNRFSGVPDRFSGSGAGTEFTLKISRVEAEDVGVYYCMQARHFPRTFGQGTKVEIKR
B17: COV_1087 (antibody, V domains shown)
VH: QVQLVQSGAEVQKPGASVKVSCKASGDTFSYHYVHWVRQAPGYGLEWMGIIDPRNADTNYTQKFQGRVTMTTDTSTNTVFLELSSLTSDDTAVYYCARAPDQYFDYWGQGSPVTVSA
VL: DIVMTQTPLSSPVTLGQPASISCKSSESLLHSDGNTYLSWLQQRPGQPPRLLIYRVSNRFSGVPDRFSGSGAGTDFTLRISRVEAEDVGVYYCMQATQFPRTFGQGTKVEIKR
B18: COV_1086 (antibody, V domains shown)
VH: GAQLLESGGALVQPGGSLRLSCAASGFTFNNYGMGWVRQTPGKGLEWVSTINDNGGNTHYADSVKGRFTISRDNSKHTLYLQMNSLRVEDTALYYCAKDVGGPALFEYWGHGTLVTVSS
VL: DIVMTQTPLSSSVTLGQPASISCRSSQSLVHSDGNTYLTWLQQRPGQPPKLLIYKISNRLSGVPDRFSGSGAGTDFTLKISRVEAEDVGVYYCMQATHFPRTFGQGTKLEIKR
B19: COV_1045 (antibody, V domains shown)
VH: QVHLVQSGAEVQKPGASVKISCKASGDTLSDSYVHWVRQAPGSGLEWMGIINTRDGDTNYTHQFQDRVMMTTDTSTSTVFLELFSLTSEDTAVYYCARAPDQYFDYWGQGSPVTVSA
VL: DIVMTQTPLSSPVTLGQPASISCRSSESLVHSNGNTYLSWLQQRPGQPPRLLIYRVSNRFSGVPDRFSGSGAGTEFTLKISRVEAEDVGVYYCMQARHFPRTFGQGTKVEIK
B20: COV_2018 (antibody, V domains shown)
VH: QVQLVQSGAEVKKPGSSVKVSCKASGGTSSSYAISWVRQAPGQGLEWIGGIIPIFDTTKYAQKFQGRVTITADESTNTAYMEVSSLRSEDTAVYYCAKVADRVGASTGELDYWGQGTLVTVSS
VL: EVVLTQSPATLSLSPGERGTLSCRASQSISNYLAWYQQKPGQAPRLLIYNASNRATGVPARFSGSGSGTDFTLTISSLEPEDFAVYYCQQRSNWPPWTFGQGTKVEIK

Each binder was assayed against SARS-CoV-2 S on pseudovirions (Wuhan Hu-1 / IL1/2020, last 18 amino acids removed) (SARS-CoV-2, UniProt P0DTC2 14-1273) (assay: cell-based or functional assay).

Binder	Mean IC50, pSV neutralization	Mean IC80, pSV neutralization
B1	≥ 25 µg/ml	≥ 25 µg/ml
B2	≥ 25 µg/ml	≥ 25 µg/ml
B3	≥ 25 µg/ml	≥ 25 µg/ml
B4	≥ 25 µg/ml	≥ 25 µg/ml
B5	≥ 25 µg/ml	≥ 25 µg/ml
B6	≥ 25 µg/ml	≥ 25 µg/ml
B7	≥ 25 µg/ml	≥ 25 µg/ml
B8	≥ 25 µg/ml	≥ 25 µg/ml
B9	≥ 25 µg/ml	≥ 25 µg/ml
B10	≥ 25 µg/ml	≥ 25 µg/ml
B11	≥ 25 µg/ml	≥ 25 µg/ml
B12	13.5 µg/ml	15.8 µg/ml
B13	3.73 µg/ml	≥ 25 µg/ml
B14	≥ 25 µg/ml	≥ 25 µg/ml
B15	≥ 25 µg/ml	≥ 25 µg/ml
B16	≥ 25 µg/ml	≥ 25 µg/ml
B17	≥ 25 µg/ml	≥ 25 µg/ml
B18	≥ 25 µg/ml	≥ 25 µg/ml
B19	≥ 25 µg/ml	≥ 25 µg/ml
B20	0.31 µg/ml	1.27 µg/ml
